Source: IntAct's records for PubMed 31515488

B1: Myogenin (Homo sapiens), P15173 (parent)
chain: MELYETSPYFYQEPRFYDGENYLPVHLQGFEPPGYERTELTLSPEAPGPLEDKGLGTPEHCPGQCLPWACKVCKRKSVSVDRRRAATLREKRRLKKVNEAFEALKRSTLLNPNQRLPKVEILRSAIQYIERLQALLSSLNQEERDLRYRGGGGPQPGVPSECSSHSASCSPEWGSALEFSANPGDHLLTADPTDAHNLHSLTSIVDSITVEDVSVAFPDETMPN
B2: Ribonuclease P protein subunit p25-like protein (Homo sapiens), Q8N5L8 (parent)
chain: MEHYRKAGSVELPAPSPMPQLPPDTLEMRVRDGSKIRNLLGLALGRLEGGSARHVVFSGSGRAAGKAVSCAEIVKRRVPGLHQLTKLRFLQTEDSWVPASPDTGLDPLTVRRHVPAVWVLLSRDPLDPNECGYQPPGAPPGLGSMPSSSCGPRSRRRARDTRS
partner: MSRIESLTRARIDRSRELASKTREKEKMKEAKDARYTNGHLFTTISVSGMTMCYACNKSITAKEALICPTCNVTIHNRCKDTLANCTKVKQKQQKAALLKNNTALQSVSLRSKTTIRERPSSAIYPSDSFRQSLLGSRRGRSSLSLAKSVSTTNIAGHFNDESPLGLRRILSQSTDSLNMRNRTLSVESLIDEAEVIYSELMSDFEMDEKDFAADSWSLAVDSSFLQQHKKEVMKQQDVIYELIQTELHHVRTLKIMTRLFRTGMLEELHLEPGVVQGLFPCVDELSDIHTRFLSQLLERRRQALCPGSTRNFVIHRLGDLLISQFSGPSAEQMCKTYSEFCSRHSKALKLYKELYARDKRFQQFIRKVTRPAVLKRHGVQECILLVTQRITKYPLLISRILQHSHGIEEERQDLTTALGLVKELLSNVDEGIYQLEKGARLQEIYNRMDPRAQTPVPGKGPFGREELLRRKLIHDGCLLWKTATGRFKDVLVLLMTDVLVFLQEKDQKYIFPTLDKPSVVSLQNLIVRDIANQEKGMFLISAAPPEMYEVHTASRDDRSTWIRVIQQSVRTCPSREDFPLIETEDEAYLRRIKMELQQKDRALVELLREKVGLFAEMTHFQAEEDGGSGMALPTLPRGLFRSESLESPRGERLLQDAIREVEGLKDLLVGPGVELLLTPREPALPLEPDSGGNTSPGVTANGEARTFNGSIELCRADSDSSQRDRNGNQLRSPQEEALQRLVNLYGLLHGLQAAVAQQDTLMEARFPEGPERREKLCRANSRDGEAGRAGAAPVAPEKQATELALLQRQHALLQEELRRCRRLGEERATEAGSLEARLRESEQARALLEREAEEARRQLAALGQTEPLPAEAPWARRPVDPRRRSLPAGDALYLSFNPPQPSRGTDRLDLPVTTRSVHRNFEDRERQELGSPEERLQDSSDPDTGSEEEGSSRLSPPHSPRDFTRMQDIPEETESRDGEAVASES
B3: Syntenin-2 (Homo sapiens), Q9H190 (parent)
chain: MSSLYPSLEDLKVDQAIQAQVRASPKMPALPVQATAISPPPVLYPNLAELENYMGLSLSSQEVQESLLQIPEGDSTAVSGPGPGQMVAPVTGYSLGVRRAEIKPGVREIHLCKDERGKTGLRLRKVDQGLFVQLVQANTPASLVGLRFGDQLLQIDGRDCAGWSSHKAHQVVKKASGDKIVVVVRDRPFQRTVTMHKDSMGHVGFVIKKGKIVSLVKGSSAARNGLLTNHYVCEVDGQNVIGLKDKKIMEILATAGNVVTLTIIPSVIYEHMVKKLPPVLLHHTMDHSIPDA
partner: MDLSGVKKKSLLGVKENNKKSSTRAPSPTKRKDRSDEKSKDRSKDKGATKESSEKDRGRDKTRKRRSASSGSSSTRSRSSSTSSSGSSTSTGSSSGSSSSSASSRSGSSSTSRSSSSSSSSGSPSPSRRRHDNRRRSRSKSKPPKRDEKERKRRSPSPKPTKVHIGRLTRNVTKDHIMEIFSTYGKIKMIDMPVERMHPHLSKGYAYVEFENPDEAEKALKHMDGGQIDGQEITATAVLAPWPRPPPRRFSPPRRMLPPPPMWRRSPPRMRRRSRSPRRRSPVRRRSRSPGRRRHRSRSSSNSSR

Variants of: B1
Conditions: with if4e2_human EIF4E2, O60573
Sequence of if4e2_human EIF4E2, O60573 (O60573 whole entry): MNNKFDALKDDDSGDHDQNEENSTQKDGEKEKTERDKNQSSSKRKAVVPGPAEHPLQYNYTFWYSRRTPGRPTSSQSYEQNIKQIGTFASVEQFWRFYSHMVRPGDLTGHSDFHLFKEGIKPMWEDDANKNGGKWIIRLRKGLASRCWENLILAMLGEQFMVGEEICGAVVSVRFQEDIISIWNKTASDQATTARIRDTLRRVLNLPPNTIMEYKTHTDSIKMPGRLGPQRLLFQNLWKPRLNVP

effect of a mutation on the interaction | Variant
disrupting interaction strength | A181T
with no effect | P49H

Variants of: B1
Conditions: with cc28a_human CCDC28A

effect of a mutation on the interaction | Variant
disrupting interaction strength | A181T

Variants of: B1
Conditions: with mlh1_human MLH1, P40692
Sequence of mlh1_human MLH1, P40692 (P40692 whole entry): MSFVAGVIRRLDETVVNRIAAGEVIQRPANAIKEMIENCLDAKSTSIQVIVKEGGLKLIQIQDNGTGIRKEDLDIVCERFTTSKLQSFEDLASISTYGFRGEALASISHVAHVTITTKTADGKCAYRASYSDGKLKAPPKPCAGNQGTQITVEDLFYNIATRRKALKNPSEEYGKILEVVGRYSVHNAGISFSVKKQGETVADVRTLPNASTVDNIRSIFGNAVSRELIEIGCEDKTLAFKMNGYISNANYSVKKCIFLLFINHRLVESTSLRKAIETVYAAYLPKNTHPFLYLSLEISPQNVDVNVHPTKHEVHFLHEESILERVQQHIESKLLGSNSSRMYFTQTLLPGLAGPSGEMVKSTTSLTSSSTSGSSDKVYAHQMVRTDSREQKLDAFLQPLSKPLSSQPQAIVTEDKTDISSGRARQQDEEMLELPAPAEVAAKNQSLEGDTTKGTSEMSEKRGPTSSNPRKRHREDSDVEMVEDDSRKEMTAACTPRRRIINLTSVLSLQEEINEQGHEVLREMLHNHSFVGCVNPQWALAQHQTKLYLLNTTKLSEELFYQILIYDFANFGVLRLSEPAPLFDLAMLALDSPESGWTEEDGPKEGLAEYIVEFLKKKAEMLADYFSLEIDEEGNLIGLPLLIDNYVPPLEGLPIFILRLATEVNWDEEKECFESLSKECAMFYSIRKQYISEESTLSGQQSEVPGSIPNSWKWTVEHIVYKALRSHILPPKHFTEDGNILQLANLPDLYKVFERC

effect of a mutation on the interaction | Variant
disrupting interaction strength | A181T
with no effect | P49H

Variants of: B1
Conditions: with fril_human FTL

effect of a mutation on the interaction | Variant
with no effect | P49H
with no effect | R147C

Variants of: B2
Conditions: with arhg2_human ARHGEF2, Q92974

effect of a mutation on the interaction | Variant
with no effect | R155Q
with no effect | D127N

Variants of: B3
Conditions: with rnps1_human RNPS1, Q15287

effect of a mutation on the interaction | Variant
disrupting interaction strength | G242R
with no effect | V182M
disrupting interaction strength | G225R
